Data on two substances can be found in US6008320A, “Elastase inhibitor and process for preparing the same” (Korea Advanced Institute of Science and Technology, priority 1995, dated 1999).

Entries after “also recorded” stand apart in the source; their conditions may differ.

Data set [1] concerns the target T1, elastase (Homo sapiens, UniProt P08246).
T1 sequence (P08246 30-267): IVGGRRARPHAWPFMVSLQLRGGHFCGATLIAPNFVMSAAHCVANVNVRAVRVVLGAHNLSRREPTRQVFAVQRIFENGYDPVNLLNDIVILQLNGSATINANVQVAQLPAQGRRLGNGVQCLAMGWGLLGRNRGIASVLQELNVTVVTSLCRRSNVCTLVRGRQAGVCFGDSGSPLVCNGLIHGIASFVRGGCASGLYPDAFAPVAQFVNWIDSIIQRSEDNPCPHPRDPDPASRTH
The conditions noted are these: other elastase-inhibiting proteins in the prior art; read-out: inhibition constant; cited from earlier work.

The subject of data set [2] is elastase. Description: Elastase-inhibiting activity assay (decrease in ρ-nitroaniline degrading activity of elastase). The class given is biochemical. The conditions noted are these: 1 U = amount of inhibitor that decreases the degradation of 1 μM ρ-nitroaniline by elastase per minute; 37° C., 50 min. Here is the method:
The activity of the purified Guamerin was assayed as follows: 50 μl of elastase-containing solution(0.37 mg/ml) and 500 μl of 1 mM .rho.-nitroaniline were mixed together, and 50 μl of each of fractions obtained in the course of purification was added to the mixture, and left to react at 37° C. for 50 min. The absorbance(O.D.) at 440 nm calculated in terms of the hydrolysed .rho.-nitroaniline, was measured. O.D. values of the control and the active fractions were compared, and the activity of Guamerin was determined, based on the decrease in .rho.-nitroaniline degradating activity of elastase.
Protein was quantitatively assayed by Bradford method(see: Bradford, M. M., Anal. Biochem., 72: 248-254(1976)). In this regard, one unit(1 U) was defined as the amount of inhibitor that decreases the degradation of 1 μM .rho.-nitroaniline by elastase per minute.

The subject of data set [3] is elastase. Description: Specificity of inhibiting activity: elastase. The class given is biochemical. The conditions noted are these: FIG. 4: HL-elastase (human leukocyte) and PP-elastase (porcine pancreas). Here is the method:
(§1) The specific activities of Guamerin on the other types of proteases beside elastase, were studied; and, it was determined that: while it has no effect on papain, pepsin, thrombin, and factor Xa, Guamerin had about 15% of inhibiting-activity against trypsin, chymotrypsin, and subtilisin. […] In FIG. 4, HL-elastase and PP-elastase represent the ones isolated from human leukocyte and porcine pancreas, respectively.

Data set [4] deals with T2, papain (Carica papaya, UniProt P00784).
T2 sequence (P00784 134-345): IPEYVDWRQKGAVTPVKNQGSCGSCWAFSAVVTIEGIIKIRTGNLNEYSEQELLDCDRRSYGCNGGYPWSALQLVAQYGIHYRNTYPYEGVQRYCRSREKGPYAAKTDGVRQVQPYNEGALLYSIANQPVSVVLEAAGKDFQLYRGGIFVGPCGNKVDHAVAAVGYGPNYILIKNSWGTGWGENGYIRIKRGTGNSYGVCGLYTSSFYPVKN
As to the kind of experiment: Specificity of inhibiting activity: papain. The class given is biochemical. Here is the method: as §1

For data set [5], the target named is pepsin (Homo sapiens, UniProt P0DJD8). As to the kind of experiment: Specificity of inhibiting activity: pepsin. The class given is biochemical. Here is the method: as §1
Chain of pepsin (P0DJD8 63-388): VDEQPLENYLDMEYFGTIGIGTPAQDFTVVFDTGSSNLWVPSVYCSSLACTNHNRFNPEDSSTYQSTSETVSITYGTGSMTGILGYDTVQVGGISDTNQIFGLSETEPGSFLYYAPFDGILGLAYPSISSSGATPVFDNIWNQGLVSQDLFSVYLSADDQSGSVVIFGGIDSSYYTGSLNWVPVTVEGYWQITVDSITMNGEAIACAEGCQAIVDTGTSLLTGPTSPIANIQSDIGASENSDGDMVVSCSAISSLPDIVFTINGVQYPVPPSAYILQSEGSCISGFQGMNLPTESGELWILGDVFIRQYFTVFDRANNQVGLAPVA
Data set [6] has as its target thrombin (Homo sapiens, UniProt P00734). Description: Specificity of inhibiting activity: thrombin. The class given is biochemical. Here is the method:
as §1

Data set [7] has as its target factor Xa (Homo sapiens, UniProt P00742). As to the kind of experiment: Specificity of inhibiting activity: factor Xa. The class given is biochemical. Here is the method:
as §1

For data set [8], the target named is T3, trypsin (Bos taurus, UniProt P00760).
T3 construct: gene PRSS1
T3 sequence (P00760 24-246): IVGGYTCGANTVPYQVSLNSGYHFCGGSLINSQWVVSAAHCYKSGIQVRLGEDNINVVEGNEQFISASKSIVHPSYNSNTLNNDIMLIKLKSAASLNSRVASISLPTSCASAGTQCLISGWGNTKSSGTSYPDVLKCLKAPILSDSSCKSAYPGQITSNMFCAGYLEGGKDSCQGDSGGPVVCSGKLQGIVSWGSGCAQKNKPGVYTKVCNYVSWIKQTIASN
Description: Specificity of inhibiting activity: trypsin. The class given is biochemical. Here is the method:
as §1

Data set [9] addresses chymotrypsin (Bos taurus, UniProt P00766). As to the kind of experiment: Specificity of inhibiting activity: chymotrypsin. The class given is biochemical. Here is the method: as §1
The test system of data set [10] is subtilisin. As to the kind of experiment: Specificity of inhibiting activity: subtilisin. The class given is biochemical. Here is the method:
as §1

The target in data set [11] is T4, elastase (Homo sapiens, UniProt P08246).
T4 sequence (P08246 30-247 limits assumed): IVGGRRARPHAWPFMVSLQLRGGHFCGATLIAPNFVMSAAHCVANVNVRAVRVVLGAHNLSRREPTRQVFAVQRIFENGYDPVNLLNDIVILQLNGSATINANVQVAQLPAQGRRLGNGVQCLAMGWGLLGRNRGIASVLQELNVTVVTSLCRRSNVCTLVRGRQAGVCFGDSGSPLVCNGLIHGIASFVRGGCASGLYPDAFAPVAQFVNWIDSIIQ
Description: Determination of inhibition constant and inhibition mechanism. The class given is biochemical. The conditions noted are these: FIG. 5.

Data set [12] is described as follows: Heat stability of Guamerin activity. The class given is physicochemical. The conditions noted are these: 40° C. to 100° C. at an interval of 10° C., 15 min. Here is the method: To investigate the effect of heat on the activity of Guamerin, it was subjected to heating condition at an interval of 10° C. ranging from 40° C. to 100° C. for 15 min(see: FIG. 6).

Chain of factor Xa (P00742 235-488 limits assumed): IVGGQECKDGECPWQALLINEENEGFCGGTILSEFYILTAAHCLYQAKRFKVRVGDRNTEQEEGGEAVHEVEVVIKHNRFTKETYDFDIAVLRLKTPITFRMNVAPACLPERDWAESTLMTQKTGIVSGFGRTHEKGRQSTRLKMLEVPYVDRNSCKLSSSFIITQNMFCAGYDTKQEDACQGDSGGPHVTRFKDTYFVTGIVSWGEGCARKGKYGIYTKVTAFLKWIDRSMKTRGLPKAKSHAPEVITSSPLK

For “elafin: elastase-inhibiting protein in the prior art, printed as isolated from european leeches (AQEPVKGPVSTKPGSCPIILIRCAMLNPPNRCLKDTDCPGIKKCCEGSCGMACFVPQ; UniProt P19957 61-117, looked up)”, in data set [1], the Ki was 0.6 nM.
For the substance “Guamerin: novel elastase-inhibiting protein isolated from a Korean leech, Guameri (Hirudo nipponia); 57 amino acids, 6,110 Da (VDENAEDTHGLCGEKTCSPAQVCLNNECACTAIRCMIFCPNGFKVDENGCEYPCTCA)”, in data set [2], the Specific activity was found to be 361 units/mg. For the same substance, in data set [3], the “inhibiting activity on elastase” value is listed as “about 90%”. The effect on papain entry in data set [4] was “no effect”. Besides, the effect on pepsin result in data set [5] is reported as “no effect”. Also, in data set [6], the effect on thrombin result was “no effect”. In data set [7], the “effect on factor Xa” value is given as “no effect”. Also, the inhibiting-activity against trypsin entry in [8] is “about 15%”. Further, the inhibiting-activity against chymotrypsin entry in data set [9] is reported as “about 15%”. For the same substance, the inhibiting-activity against subtilisin result in [10] is “about 15%”. The “mechanism of elastase inhibition” value in data set [11] is listed as “competitive inhibition”. Moreover, the “change in activity after heating” value in data set [12] is “quite stable; also recorded: no change”.
